Measurements from paper PMC8271855.

Biological target: Recombinant green fluorescent protein (CopGFP, amplified from the pTurboGFP plasmid)
Test: SEC

## Recombinant green fluorescent protein (CopGFP, amplified from the pTurboGFP plasmid) (natural protein)
  stoichiometry N: 2
